{"source": "patent US20250092133A1", "about": "(Amgen, published 2025)", "binders": {"B1": {"name": "CDH3-10 scFv (scFv)", "scFv": "EVQLVEESGGGLVKPGGSLKLSCAASGFTFSSYAMSWVRQTPDKRLEWVATISSGGHYTYYPDSVKGRFTISRDNAKNTLYLQMSSLKSEDTAMYYCASYYYGIPFGYWGQGTTVTVSSGGGGSGGGGSGGGGSELVMTQSPSSLSASLGEGVSLTCRASQDIGINLIWLRQEPDGTIKRLIYDTSSLDSGVPKRFSGSRSGSDYSLTISSLESEDFVHYYCLQYGSSPLTFGAGTKLEIK"}, "B2": {"name": "CDH3-9 (scFv)", "scFv": "EVQLVEESGGDLVKPGGSLKLSCAASGFTFSTYGMSWVRQTPDKRLEWVATISSGGHYSYYPDSVKGRFTISRDNAKNTLYLQMSSLKSEDTAMYYCASYYYGSPFAYWGQGTTVTVSSGGGGSGGGGSGGGGSELQMTQSPSSLSASLGERVSLTCRASQDIGSSLNWLQQKPDGTIKRLIYDTSSLDSGVPKRFSGSRSGSDYSLTISSLESEDFGDYYCVQYGSSPLTFGAGTKLEIK", "notes": "Used as crude periplasmic extract and detected through a FLAG tag; also called CDH3-9 scFv"}, "B3": {"name": "CDH3-8 (scFv)", "scFv": "EVQLVEQSGAEVVKPGASVKITCKASGYAFSSYWMNWVRQRPGKGLEWIGHIYPGDGDTNYNGKFKGKVTLTADKSSNTAYMQLSDLTPEDSAVYFCARDRGSFGAWFAYWGQGTTVTVSSGGGGSGGGGSGGGGSELVMTQTPSSLSASLGDRVTISCRASQDISNYLNWYQQKPDGTVKLLIYYTSRLHSGVPSRFSGSGSGTDYSLTISNLEQEDIATYFCQQGNRNPPTFGGGTKLEIK", "notes": "Used as crude periplasmic extract and detected through a FLAG tag; also called CDH3-8 scFv"}}}
{"target": "T1, Hu CDH3 Dom1B mu (aa 144-179), human/mouse chimeric CDH3 on CHO cells (chimeric hu/mu, UniProt P22223 108-681 (human entry))", "T1 chain": "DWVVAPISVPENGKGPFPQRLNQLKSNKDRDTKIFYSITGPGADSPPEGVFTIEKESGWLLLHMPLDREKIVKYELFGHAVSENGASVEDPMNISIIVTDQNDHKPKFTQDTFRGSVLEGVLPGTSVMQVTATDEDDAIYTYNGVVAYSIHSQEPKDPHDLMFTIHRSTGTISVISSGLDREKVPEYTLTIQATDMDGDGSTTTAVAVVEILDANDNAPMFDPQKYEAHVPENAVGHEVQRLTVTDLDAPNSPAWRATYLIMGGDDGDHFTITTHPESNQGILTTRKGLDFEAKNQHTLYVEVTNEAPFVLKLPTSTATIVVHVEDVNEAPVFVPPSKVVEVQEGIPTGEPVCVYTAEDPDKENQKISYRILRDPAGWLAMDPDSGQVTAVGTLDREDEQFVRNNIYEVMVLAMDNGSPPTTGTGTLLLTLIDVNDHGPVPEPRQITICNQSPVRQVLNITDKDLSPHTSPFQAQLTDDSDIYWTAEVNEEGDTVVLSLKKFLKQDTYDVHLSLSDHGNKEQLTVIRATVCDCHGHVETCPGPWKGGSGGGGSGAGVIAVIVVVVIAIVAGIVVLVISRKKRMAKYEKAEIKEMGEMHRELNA", "experiment": "flow cytometry, transfected CHO cells; crude periplasmic scFv extract; anti-FLAG M2 + anti-mouse IgG Fcγ-PE", "experimental": "(§1) Cells transfected with human or murine CDH3, or with the chimeric human/mouse CDH3 molecules (see Example 1) were stained with crude, undiluted periplasmic extract containing scFv binding to human/macaque CDH3. […] As negative control, cells were incubated with PBS/2% FCS instead of the periplasmic extract. The samples were measured by flow cytometry."}
{"binder": "B1", "binding result": "no binding"}
{"binder": "B2", "binding result": "no binding"}
{"binder": "B3", "binding result": "no binding"}
{"target": "T2, murine CDH3 on cells (mouse, UniProt P10287 100-822)", "T2 construct": "negative control; also called mouse CDH3", "T2 sequence": "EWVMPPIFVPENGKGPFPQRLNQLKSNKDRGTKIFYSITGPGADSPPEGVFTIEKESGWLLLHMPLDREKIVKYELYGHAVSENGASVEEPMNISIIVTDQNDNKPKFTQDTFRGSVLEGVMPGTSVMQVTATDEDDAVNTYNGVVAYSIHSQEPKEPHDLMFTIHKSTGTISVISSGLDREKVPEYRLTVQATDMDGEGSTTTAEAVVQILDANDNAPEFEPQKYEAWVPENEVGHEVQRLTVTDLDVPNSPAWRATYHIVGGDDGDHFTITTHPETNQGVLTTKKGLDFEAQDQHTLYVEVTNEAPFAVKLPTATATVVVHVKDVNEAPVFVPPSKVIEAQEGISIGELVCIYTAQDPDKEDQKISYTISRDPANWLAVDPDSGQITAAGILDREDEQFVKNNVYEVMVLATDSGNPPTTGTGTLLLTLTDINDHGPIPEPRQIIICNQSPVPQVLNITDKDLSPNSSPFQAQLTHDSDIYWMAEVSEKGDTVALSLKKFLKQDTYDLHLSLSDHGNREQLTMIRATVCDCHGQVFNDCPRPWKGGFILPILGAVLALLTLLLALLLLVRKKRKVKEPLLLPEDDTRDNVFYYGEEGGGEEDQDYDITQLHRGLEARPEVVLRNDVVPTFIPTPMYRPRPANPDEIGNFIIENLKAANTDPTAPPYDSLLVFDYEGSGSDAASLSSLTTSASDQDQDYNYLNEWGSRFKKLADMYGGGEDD", "experiment": "flow cytometry, transfected CHO cells; crude periplasmic scFv extract; anti-FLAG M2 + anti-mouse IgG Fcγ-PE", "experimental": "as §1"}
{"binder": "B1", "binding result": "no binding"}
{"binder": "B2", "binding result": "no binding"}
{"binder": "B3", "binding result": "no binding"}
